Source: the RNAGym collection of RNA variant scans (doi:10.7554/elife.90254)

B1: LINE1-full (parent)
chain: UACGUAGGUGGUUUUCCCCUGAUAGUGCUAAGGGGGCCUGGAAGUUUGGACUGGGCAGAGCUCAACACAGCGUGGCAAAGUGGCUGUGGCUAGACUGCCUCUCUGGAUUCCUCGUCACUCAGCAGGGCAUCUCUGAGAGAAAUGCC

Variants of: B1
Experiment: self-cleavage, relative activity (ratio to wild type); higher = more cleavage; in vitro, sequencing; the parent is a self-cleaving ribozyme
UACGUAGGUGGUUUUCCCCUGAUAGUGCUAAGGGCGCCUGGAAGUUUGGACUGGGCAGGGCUCAACACAGCGUGGCAAAGUGGCUGUGGCUAGACUGCCUCUCUGGAUUCCUCGUCACUCAGCAGGGCAUCUCUGAGAGAAAUGCC [G35C A59G] showed a self-cleavage of 0.19.
Variant UACGUAGGUGGUUUUCCCCUGAUAGUGCUAAGGGUGCCUGGAAGUUUGGACUGGGCAGAGCUCAACGCAGCGUGGCAAAGUGGCUGUGGCUAGACUGCCUCUCUGGAUUCCUCGUCACUCAGCAGGGCAUCUCUGAGAGAAAUGCC [G35U A67G] has a self-cleavage of 0.35.
Work on UACGUAGGUGGUUUUCCCCUGAUAGUGCUAAGGGCGCCUGGAAGUUUGGACUGGGCAGAGCUCAACACAGCGUGGCAAAGUGGCUGUGGCUAGACUGCCUCUCUGGAUUCCUCGUCACCCAGCAGGGCAUCUCUGAGAGAAAUGCC [G35C U119C] yielded a self-cleavage of 1.98.
In the case of UACGUAGGUGGUUUUCCCCUGAUAGUGCUAAGGGCGCCUGGAAGUUUGGACUGGGCAGAGCUCAACGCAGCGUGGCAAAGUGGCUGUGGCUAGACUGCCUCUCUGGAUUCCUCGUCACUCAGCAGGGCAUCUCUGAGAGAAAUGCC [G35C A67G], the self-cleavage is reported as 0.22.
In the case of UACGUAGGUGGUUUUCCCCUGAUAGUGCUAAGGGCGCCUGGAAGUUUGGACUGGGCAGAGCUCAACACAGCGUGGCAAAGUGGCUGUGGCUAGACCGCCUCUCUGGAUUCCUCGUCACUCAGCAGGGCAUCUCUGAGAGAAAUGCC [G35C U96C], the self-cleavage is reported as 0.26.
With UACGUAGGUGGUUUUCCCCUGAUAGUGCUAAGGGAGCCUGGAAGUUUGGACUGGGCAGAGCUCAACACAGCGUGGCAAAGUGGCUGUGGCUAGACUGCCUCUCCGGAUUCCUCGUCACUCAGCAGGGCAUCUCUGAGAGAAAUGCC [G35A U104C] the self-cleavage was 1.42.
For UACGUAGGUGGUUUUCCCCUGAUAGUGCUAAGGGUGCCUGGAGGUUUGGACUGGGCAGAGCUCAACACAGCGUGGCAAAGUGGCUGUGGCUAGACUGCCUCUCUGGAUUCCUCGUCACUCAGCAGGGCAUCUCUGAGAGAAAUGCC [G35U A43G], the self-cleavage was 1.93.
For UACGUAGGUGGUUUUCCCCUGAUAGUGCUAAGGGAGCCUGGAAGUUUGGACUGGGCAGAGCUCAACACAGCGUGGCAAAGUGGCUGUGGCUAGACCGCCUCUCUGGAUUCCUCGUCACUCAGCAGGGCAUCUCUGAGAGAAAUGCC [G35A U96C], the self-cleavage was 0.09.
With UACGUAGGUGGUUUUCCCCUGAUAGUGCUAAGGGCGCCUGGAAGUUUGGACUGGGCAGAGCUCAACACAGCGUGGCAAAGUGGCUGUGGCUAGACUGCCUCUCUGGAUUCCUCGUCACUCAGCAGGGCAUCUCAGAGAGAAAUGCC [G35C U134A] the self-cleavage was 0.71.
For UACGUAGGUGGUUUUCCCCUGAUAGUGCUAAGGGCGCCUGGAAGUUUGGACUGGGCAGAGCUCAACACAGCGUGGCAAAGUGGCCGUGGCUAGACUGCCUCUCUGGAUUCCUCGUCACUCAGCAGGGCAUCUCUGAGAGAAAUGCC [G35C U85C], the self-cleavage was 0.22.
In the case of UACGUAGGUGGUUUUCCCCUGAUAGUGCUAAGGGAGCCUGGAAGUUUGGACUGGGCAGAGCUCAACACAGCGUGGCAAAGUGGCUGAGGCUAGACUGCCUCUCUGGAUUCCUCGUCACUCAGCAGGGCAUCUCUGAGAGAAAUGCC [G35A U87A], the self-cleavage is reported as 0.08.
For UACGUAGGUGGUUUUCCCCUGAUAGUGCUAAGGGCGCCUGGAAGUUUGGACUGGGCAGAGCUCAACACAGCGUGGCAAAGUGGCUGUGGCUAGACUGCCUCUCUGGAUUCCUCGUCACUCAGCAGGGCAUCCCUGAGAGAAAUGCC [G35C U132C], the self-cleavage was 1.53.
With UACGUAGGUGGUUUUCCCCUGAUAGUGCUAAGGGAGCCUGGAAGUUUGGACUGGGCAGAGCUCAACACAGCGUGGCAAAGUGGCUGUGGCUAGACUGCCUCUCUGGAUUCCUCGUCACUCAGCAGGGCACCUCUGAGAGAAAUGCC [G35A U130C] the self-cleavage was 0.96.
For UACGUAGGUGGUUUUCCCCUGAUAGUGCUAAGGGAGCCUGGAAGUUUGGACUGGGCAGAGCUCAACACAGCGUGGCAAAGUGGCUGUGGCUAGACUGCCACUCUGGAUUCCUCGUCACUCAGCAGGGCAUCUCUGAGAGAAAUGCC [G35A U100A], the self-cleavage was 0.31.
UACGUAGGUGGUUUUCCCCUGAUAGUGCUAAGGGAGCCUGGAAGUUUGGACUGGGCAGAGCUCAACACAGCGUGGCAAAGUGGCUGUGGCUAGACUGCCUCUCUGGAUUCCUCGCCACUCAGCAGGGCAUCUCUGAGAGAAAUGCC [G35A U115C] showed a self-cleavage of 1.03.
UACGUAGGUGGUUUUCCCCUGAUAGUGCUAAGGGAGCCUGGAAGUUUGGACUGGGCAGAGCUCAACACAGCGUGGCAAAGUGGCUGUGGCUAGACUGCCUCUCUGGAUUCCUCGACACUCAGCAGGGCAUCUCUGAGAGAAAUGCC [G35A U115A] showed a self-cleavage of 1.17.
Work on UACGUAGGUGGUUUUCCCCUGAUAGUGCUAAGGGAGCCUGGAAGUUUGGACUGGGCAGAGCUCAACACAGCGUGGCAAAGUGGCUGUGGCUAGACUGCCUCUCUGGAUUCCUCGUCACUCAGCAGGGCAUCUCGGAGAGAAAUGCC [G35A U134G] yielded a self-cleavage of 0.47.
Work on UACGUAGGUGGUUUUCCCCUGAUAGUGCUAAGGGAGCCUGGAAGUUUGGACUGGGCAGAGCUCAACACAGCGUGGCAAAGUGGCUGUGGCUAGACUGCCUCUCUGGAUUCCUCGUCACUCAGCAGGGCAUCUCCGAGAGAAAUGCC [G35A U134C] yielded a self-cleavage of 0.92.
With UACGUAGGUGGUUUUCCCCUGAUAGUGCUAAGGGAGCCUGGAAGUUUGGACUGGGCAGAGCUCAACACAGCGUGGCAAAGUGGCUGUGGCUAGACUGCCUCUCUGGACUCCUCGUCACUCAGCAGGGCAUCUCUGAGAGAAAUGCC [G35A U108C] the self-cleavage was 1.11.
UACGUAGGUGGUUUUCCCCUGAUAGUGCUAAGGGCGCCUGGAAGUUCGGACUGGGCAGAGCUCAACACAGCGUGGCAAAGUGGCUGUGGCUAGACUGCCUCUCUGGAUUCCUCGUCACUCAGCAGGGCAUCUCUGAGAGAAAUGCC [G35C U47C] gave a self-cleavage of 1.84.
